Data taken from US20240181013A1, “POEGMA COPOLYMER CONJUGATES AND METHODS OF TREATING DISEASES” (Duke University, priority 2021, published 2024).

Columns and labels:
[1] = system: C57BL6/J mice; details: mouse, in vivo
Procedure: (§1) Immunogenicity. Immunogenicity of POEGMA was tested and compared to that of PEG in three sets of immunogenicity experiments. […] In the second set of experiments, mice were injected with OVA (Invivogen), OVA-PEG10K, and OVA-POEGMA10K at 9.6 nmol kg^−1. In the final set, OVA, OVA-PEG10K, and OVA-POEGMA10K were emulsified in an equal volume of sterile and endotoxin-free adjuvant (Invivogen) and then administrated into 7-week-old C57BL/6J mice (n=10) at 9.6 nmol kg^−1. Complete Freund's adjuvant (CFA) was used for the first injection, while incomplete Freund's adjuvant (IFA) was the adjuvant of choice for the rest of the injections. In all experimental sets, an equal injection volume of PBS (or PBS emulsified in CFA or IFA) was used as a negative control. All drugs were administrated into mice every 17 days three times (Day 0, 17, and 34). […]
(§2) Analysis of anti-drug antibodies (ADA), ADAs were analyzed using a Luminex multiplex immunoassay (LMI) according to the manufacturer's instructions with minor modifications. […]
(§3) In a typical LMI assay, 50 μl of the diluted plasma samples (n=3) were transferred to a black, round-bottom 96-well-plate (Corning). […] Finally, magnetic beads were suspended in 100 μl of assay buffer, followed by measuring mean fluorescence signal intensity (MFI) using MAGPIX (Luminex) instrument. […]

[2] = system: C57BL/6J mice; details: mouse, in vivo, sc
Procedure: as §1, §2, §3

Molecule | PEG-specific IgM titer, higher than with exendin-PEG [1] [fold] | anti-POEGMA response with Freund's adjuvant [2]
OVA-PEG: ovalbumin conjugated to ~10 kDa PEG via activated carbonate-amine conjugation (conjugate, UniProt P01012 2-386, looked up, 10 kDa PEG conjugate) Ovalbumin: GSIGAASMEFCFDVFKELKVHHANENIFYCPIAIMSALAMVYLGAKDSTRTQINKVVRFDKLPGFGDSIEAQCGTSVNVHSSLRDILNQITKPNDVYSFSLASRLYAEERYPILPEYLQCVKELYRGGLEPINFQTAADQARELINSWVESQTNGIIRNVLQPSSVDSQTAMVLVNAIVFKGLWEKAFKDEDTQAMPFRVTEQESKPVQMMYQIGLFRVASMASEKMKILELPFASGTMSMLVLLPDEVSGLEQLESIINFEKLTEWTSSNVMEERKIKVYLPRMKMEEKYNLTSVLMAMGITDVFSSSANLSGISSAESLKISQAVHAAHAEINEAGREVVGSAEAGVDAASVSEEFRADHPFLFCIKHIATNAVLFFGRCVSP | ~60 | –
OVA-POEGMA: ovalbumin conjugated to ~10 kDa EG3 POEGMA via activated carbonate-amine conjugation (conjugate, UniProt P01012 2-386, looked up, 10 kDa EG3 POEGMA conjugate) Ovalbumin: GSIGAASMEFCFDVFKELKVHHANENIFYCPIAIMSALAMVYLGAKDSTRTQINKVVRFDKLPGFGDSIEAQCGTSVNVHSSLRDILNQITKPNDVYSFSLASRLYAEERYPILPEYLQCVKELYRGGLEPINFQTAADQARELINSWVESQTNGIIRNVLQPSSVDSQTAMVLVNAIVFKGLWEKAFKDEDTQAMPFRVTEQESKPVQMMYQIGLFRVASMASEKMKILELPFASGTMSMLVLLPDEVSGLEQLESIINFEKLTEWTSSNVMEERKIKVYLPRMKMEEKYNLTSVLMAMGITDVFSSSANLSGISSAESLKISQAVHAAHAEINEAGREVVGSAEAGVDAASVSEEFRADHPFLFCIKHIATNAVLFFGRCVSP | – | only a weak IgM response disappearing after the first injection
